Assay [1] addresses His-tagged FP8_v1 (HIV-1). The assay can be described thus: SPR. In general terms: SPR reads the build-up and loss of mass on a sensor chip optically.
In assay [2] the target is BG505 DS-SOSIP ∆88 Env trimer (glycan N88 removed) (HIV-1 strain BG505). The assay can be described thus: SPR.
Assay [3] deals with His-tagged FP8_v1 (HIV-1). The assay is described as follows: BLI. Background: Biolayer interferometry detects binding as a change in optical thickness at a sensor tip.

Usually Kd stands for the constant that tells how readily two partners part at equilibrium.

B1: VRC34.07 Fab (Fab, V domains shown)
VH: SQYLAQPGAEVAKPGASVKVSCKVHGDNFRGHYLHWVRQAPGQGLQWIGGINPFSGEAAYGKRFEGRLRLTRDTSVNTAYMELAKLTPDDTAVYFCARDKTYNDEFTAMDIWGHGTTVIVSS
VL: DIKLTQSPAFLSASVGERVTFTCRASQDISHDLVWFQQKAGRAPSLLMFYGSTLERGVPPRFSGRRSGTEFTVTIDSLQPEDVGTYYCQQLSAFPLTFGGGTTVDIK
Consider B1, for which the Kd in assay [1] stood at 0.2 nM.

B2: VRC34.05 Fab (Fab, V domains shown)
VH: SQYLAQSGSEVKKPGASVKVSCRLHGDKFGAHYIHWVRQAPGQGLEWLGFFHPGTGDAVSAQKFQGRISLTRDTSISTGYLEVRRLSSDDTAVYYCARDKTYSDEATGMDIWGQGTTVIVSS
VL: DIKLTQSPAFLSASVGERVTFTCRASQDIRHELVWYQQKPGRGPKLLIYYGSTLEGGVPSRFSGRRSGTEFTVTISSLQPEDVGTYYCQQLNSFPLTFGGGTTVDIR
Turning to B2, in assay [2], the fold decrease of affinity against the BG505 trimer with glycan N88 came to 100 fold.

B3: VRC34-pI3 P33A (heavy chain) mutant antibody (antibody, V domains shown)
VH: QEVLVQSGAEVKKPGASVKVSCKAFGYTFTGNAMHWVRQAPGQGLEWMGWINPHSGDTTTAQKFQGRVYMTRDKSINTAYLDVTRLTSDDTAIYYCARDKYYGNEAVGMDVWGQGTTVTVSS
VL: DIQLTQSPSFLSASVGDRVTITCRASQGISNELAWYQQKPGKAPNLLIYYASTLQSGVPSRFSASGSGTHFTLTISSLQPEDFATYFCQHMSSYPLTFGGGTKVEIK
In assay [3], B3 yielded a Kd of 60 nM.

Values taken from article PMC7467872.
